According to the supplement of paper PMC12042874:
± gives the uncertainty stated by the source.

Test: amyloid nucleation score (Sup35N fusion, yeast selection) (log enrichment); library NNK1; higher = more nucleation; inactive = no reads after selection
How it was run: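 Sup35N fusions to peptides of 20 random codons were expressed in psi-negative yeast, induced 24 hours with 100 μM copper sulfate, and grown 7 days at 30°C on medium lacking adenine and uracil. Input and output plasmid inserts were sequenced by Illumina. The nucleation score is the DiMSum log enrichment of output over input reads, centred on the mode score of non-aggregating sequences. Sequences with under 100 input reads were excluded.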

Substance	amyloid nucleation score
YCEYASVVLFGTELCFAWVY	0.001 ± 0.73
IINKSLWLPRNLAFGNY	0.117 ± 0.47
AWWRCCGTLRTVRSAAKGLM	-0.292 ± 1.1
ISGFGVIVWGVVSWVWYGTN	-0.268 ± 0.7
LFASESRWSRRYMFPWCRLC	-0.445 ± 0.91
MDPTEEE	-0.573 ± 1.4
LQKIMQKISPIFRNRIYVRR	-0.327 ± 0.48
CIVVTLYSIMFRDGS	inactive
DYFWSSSEGWPEFQNIKSIG	-0.07 ± 1.4
RLEADYLTVIESVGHSATGS	inactive
VSFRMVLNYLQVGYSWGHWR	0.395 ± 0.44
YHLTQYDTMLLQYMWNHDWD	-0.707 ± 0.89
HRNWCCCCSCWSRLKMHLEL	-1.32 ± 0.64
FTNRTIFFV	-0.023 ± 0.91
SLLCWKLAVHQLGMIGNIYS	-0.452 ± 0.47
CHVQMSFNGLRYNFHTIFFI	1.2 ± 0.74
RISSVT	0.17 ± 0.86
IFSENRDVGNVFSVGQIVIF	3.72 ± 0.079
QWCVKESAFIYEYRLSGDCR	0.877 ± 0.32
IAMSSYPLD	1.02 ± 1.1
NKYLLNF	inactive
VLKHFGFCMLPNISAY	0.386 ± 0.4
YYCLKPRGQSIGYGGNCLKA	0.134 ± 0.83
ISNIF	1.67 ± 0.45
VRQSGLCIKWEVTRRAKRSV	0.699 ± 0.85

Substance	amyloid nucleation score
KGKAAT	-0.534 ± 0.87
GLTPMRHN	-1.01 ± 1.1
ACLCVIRMFHYNGLRH	0.576 ± 0.76
VLCSSWLLWKDAI	0.218 ± 0.61
LIKRVQLFV	-0.284 ± 0.4
RCEGYFSVDVRGYSMLEIPG	-0.365 ± 1.3
LCVEVS	0.369 ± 0.42
YDRNCFGAPFNSVVQVTGKS	-0.94 ± 1
CEEKCSHNVGTY	0.458 ± 0.55
VFLQFVMDDSHGLNK	inactive
PFQECFLRKVYWIIWRSRPK	0.255 ± 1.2
CCPWEEHGICNEWRHRGSGT	-0.199 ± 0.46
GHLWWSVLLVPLFTVGSTSV	0.399 ± 0.56
STDSCVALSMATWF	0.188 ± 0.46
HRLKTYIMVSFIYRADAVGI	4.89 ± 0.068
KVLLIRWDLLC	0.291 ± 0.46
GFLSATWCSQWSIILVKERG	1.48 ± 0.45
VFNVGYLV	-1.21 ± 0.55
SHTRQ	-0.223 ± 0.91
GRSSTRRNLIVDQSSVSERC	-0.009 ± 0.53
MLGDAIMGM	1.09 ± 0.57
YSMVI	inactive
FYMRSFLFDFQLFHVVGIWF	-0.929 ± 0.39
NRYRCYDCTLVGRVSYS	-0.436 ± 0.29
NPWIT	1.65 ± 0.35

Substance	amyloid nucleation score
LSRNVVGAFGSGHWRADRAA	0.256 ± 0.64
RYVSLDRPYTSNNNRYAKGV	0.475 ± 0.22
YDSSLMGVWMCGCIARWEVS	-1.93 ± 2.7
NGGMGSPLDYQRWSDGDQVG	-0.365 ± 1.1
LRGEDNLLWCVISMTL	inactive
IFISIVLLF	4.8 ± 0.079
STTYCFFSYAGLRICYALMG	1.3 ± 0.2
YLIKCTTIAGRTGYSVTMRD	-0.341 ± 1
CYPPEVF	1.31 ± 0.67
DFKVAL	-0.644 ± 0.35
CFMVHNTVVRVGKE	0.177 ± 0.7
PMVTSSCFRCTLLCSQFWQF	0.444 ± 0.26
NLSWRISKHMALGVRCLWCH	0.791 ± 0.72
DGLLTGLQDRPNSSRFKYVM	0.421 ± 0.33
ALLCFLWCRMYGTFSTSCVL	0.315 ± 0.85
MYIFVDIFAAQLVTRWKGFE	-0.97 ± 1.9
LSCQTPQSDEMSVAESAWAY	-1.18 ± 1.2
PDGPANSSKDGDFCDKLR	1.4 ± 0.6
FNFRYPKDRGVSIVGCNFPM	-0.065 ± 0.51
SADQIYHKGQWHSWTNSTNQ	0.35 ± 0.29
TVRGSTRSKLSGASWQCWRA	-0.023 ± 0.21
FLTIYGLNPSDYVGKVRQRD	0.236 ± 0.34
RLYLNDNTLSCF	-0.001 ± 0.22
RTLPSG	-0.12 ± 0.19
FRLSWHSYNSMWINTVTSPQ	2.75 ± 0.078

Substance	amyloid nucleation score
RWMELMALSRKTPGRQKARC	-0.745 ± 1.5
LIGIVKGTTVSRMGNTVIDR	inactive
NNLRYPCLGRCSISFGMVCG	0.593 ± 0.41
NFFCDSISY	-0.908 ± 1.1
MYSLFMSKVRHFCVT	2.09 ± 0.6
LMRHMFAWVDFIFSGSTQAC	1.14 ± 0.97
SRCRNYYKVHVL	-1.17 ± 1.7
FLDASVDKSLSYPGHIVAFR	-1.57 ± 1.7
VSWHHLVLLKGRLLEVSLSS	-0.158 ± 0.28
FYQLYLINSTCHGRSRYILS	0.155 ± 0.51
IWTNTLNFTARFANVLAGTG	-0.705 ± 1.2
AYCRTNTNLRVLRIWNK	-0.611 ± 0.53
CWIMYDYSSPGLFL	-1.1 ± 1.6
SLYVYISRFMTLMGCLTVNH	0.575 ± 0.35
GSDCSKAAFDPPFRSYDNAT	0.429 ± 0.33
LPSSSPMTRR	-0.837 ± 1.7
EHGERAQGPISGMLGRKCIE	1.04 ± 0.98
SVELGSGLMMWGTNSKLTVV	0.649 ± 0.76
STTIPRVFGSTYNSYNVSIS	0.384 ± 0.34
EAVVRRLSEDSCMELSSDCR	0.485 ± 0.52
RNQFDYDRWYVMRSHYRVIC	-0.526 ± 0.58
WSMLSADSRISYYIYQCSLF	2.31 ± 0.32
NVSDWSHVFMSMFLIMGGCN	0.509 ± 0.66
SQMTDYVFTL	0.848 ± 0.85
RDYYIVNSGLKLEYHLLI	3.77 ± 0.051

Substance	amyloid nucleation score
VELCHIRSLMFLIQHP	1.05 ± 0.21
SLNPALFTVSYPLVMLENDT	0.19 ± 0.29
RKCLESTTRSFLAVRS	3.3 ± 0.097
YVTFGWIYTSLVPYRLEVIL	0.243 ± 0.42
CQFDVGAQLAYYGR	inactive
DIITFHYLRTARLKGRYLFI	inactive
ILDMMAKV	1.56 ± 0.76
LNWVLFADLLWPR	0.212 ± 0.57
YWHDVI	0.104 ± 1
RDLPFVTSSLCCSNTSGCMF	0.429 ± 0.53
LGATGIGVYTVGHTFKS	-0.382 ± 0.44
LSYKIKDT	0.626 ± 0.72
GDVSRQTVEV	-0.094 ± 0.43
GYELSMKATIRVVCRAIYFC	0.62 ± 0.41
VSRVTASYRFIFNYYEMDTS	inactive
FPSNPYPNLPNMDVKRSNAF	inactive
VLFLHSS	0.355 ± 0.49
YWAKCGWQAGKRYEV	0.803 ± 0.77
FFKNLCSRGCLCSYGMVQTV	0.396 ± 0.58
VSRLEVPRFLCTLQSTLLSS	-0.123 ± 0.86
RTPFNVDPKPTDPRNTRCST	0.822 ± 0.93
TFGINRYNFRISARIGQVCI	-0.284 ± 0.22
QDGLGLTDAVRRTGFVGRTH	0.197 ± 0.86
NSCRTRLVTRGCSTVPNMWM	-0.17 ± 0.43
YMVLS	0.9 ± 0.85

Substance	amyloid nucleation score
RMMSVGALGQG	0.323 ± 0.76
QGGTVCLEF	-0.578 ± 0.34
TANTLRYSFCAT	-0.213 ± 0.32
VHGYL	0.067 ± 0.59
NSNLVFFRQYIYTVLYTNSF	5.817 ± 0.048
LQYGGQVISLNNR	1.97 ± 0.72
AVNSGRWLSVLRRRMESFLV	0.203 ± 0.42
NNLILPGWM	-0.612 ± 0.55
RFTNIFAKNRLCRLDMRRNT	-0.211 ± 0.56
TLCIVNIGSFVEDEKGDN	7.19 ± 0.073
LCKIKESNDLFSARSIVAHQ	1.06 ± 0.59
NFFIWLMVFIGDFFDLVTSA	-0.94 ± 0.59
IVVNLGWFQIGIYLPARSDT	-1.24 ± 1.9
RKAIFTSFSQ	inactive
GFRPEMHGV	inactive
IRGNVKETVIFFKTRFAFCW	0.147 ± 0.73
MFTWEL	0.436 ± 1.2
HQLLTVL	-0.997 ± 0.28
WFSVMLRYEY	1.71 ± 0.2
LVDCMALLNRYTSRIMDNC	-1.07 ± 0.8
GRHRMVWGH	0.345 ± 0.93
NRKEFKCSRWHRGNWYVNAR	-0.378 ± 0.79
VYMRISFNEVMCFVCDTGSW	7.485 ± 0.046
RVVRSATADITACMSLNIYR	0.879 ± 0.56
SSYDWCWSHVCFK	0.8 ± 0.38

Substance	amyloid nucleation score
IKVSIIGWGYILAPGGESNV	-1.28 ± 0.69
HLVKHVLCSKCTFDVLIIIY	1.08 ± 0.21
MHYRGKFLHDHWHESH	-0.485 ± 1.1
TDGTLIGSY	0.128 ± 0.44
GYGWHLSANNPVSNIRCPRA	-0.407 ± 0.42
ATLVTV	0.759 ± 0.67
FSTAM	0.895 ± 0.79
RRLPA	-0.091 ± 0.9
RYFNGYITGNLNSASNARSS	1.81 ± 0.18
YISNTRRLLQMIVCVMKSYG	inactive
RSVYFIYTWIWQVSAVIFLC	0.107 ± 0.2
DDRLLCI	-1.85 ± 2.1
PLRDGA	-0.856 ± 2.4
WIEEIVCIGS	1.03 ± 0.68
PHDSFLMHTDSGEHWGPVYR	0.037 ± 0.36
YLVTYVLSIRNCGIYIWIRR	0.413 ± 0.49
PMIPKFMSERCQLIWWM	0.961 ± 0.7
SMYFSHVSPFVWRSYCFLVC	inactive
QLVIILERRSWCHIL	2.42 ± 0.27
NMCFYELDGYMLGNYLARQF	-1.51 ± 1.3
NKCKKYGYLFRLSGYEGHNL	5.54 ± 0.091
QVSTNLVWDL	0.614 ± 1.2
SQAAGSVY	0.026 ± 0.25
GSVCHILVGWVAYMWVF	-1.18 ± 1.2
RCLQKPMRLRSQKIKQCVLR	-0.341 ± 1.4
